Measured values: the supplement of paper PMC5998384

Key:
HeLa Kyoto [1] = test: melting temperature (median over replicates), in situ; higher = more thermally stable
HeLa Kyoto [2] = test: solubility in G1/S (NP-40 vs SDS abundance) (log2 ratio); higher = more soluble; conditions: cell cycle stage: G1/S
HeLa Kyoto [3] = test: solubility change mitosis vs G1/S (difference of NP-40 vs SDS log2 ratios) (log2 ratio difference); higher = more soluble in mitosis
HeLa Kyoto [4] = test: thermal stability score vs G1/S (z-score of summed log2 fold changes over temperatures); higher = more thermally stable than in G1/S
[5] = cell cycle stage: early G1 (4.5 h after nocodazole release)
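Throughout, for melting temperature (median over replicates), in situ: HeLa Kyoto cells synchronized by double thymidine or nocodazole block, proteins quantified by TMT10plex mass spectrometry, three independent biological replicates.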
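Throughout, for solubility change mitosis vs G1/S (difference of NP-40 vs SDS log2 ratios): synchronized HeLa Kyoto cells (double thymidine block for G1/S, nocodazole release for mitosis), protein amounts in NP-40 versus SDS lysates quantified by mass spectrometry, three biological replicates.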
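Throughout, for solubility in G1/S (NP-40 vs SDS abundance): HeLa Kyoto cells arrested at G1/S by double thymidine block, proteins quantified by TMT10plex mass spectrometry in mild NP-40 versus SDS extracts, three biological replicates.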
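Throughout, for thermal stability score vs G1/S (z-score of summed log2 fold changes over temperatures): synchronized HeLa Kyoto cells, proteins quantified by TMT10plex mass spectrometry, three biological replicates, mitosis taken 0.5 h after nocodazole release, G1/S directly after double thymidine block.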

Row | Sequence | melting temperature (HeLa Kyoto [1]; cell cycle stage: G1/S) | melting temperature (HeLa Kyoto [1]; cell cycle stage: mitosis) | solubility in G1/S (log2) (HeLa Kyoto [2]) | solubility change mitosis (log2) (HeLa Kyoto [3]) | thermal stability score (HeLa Kyoto [4]; [5]) | thermal stability score (HeLa Kyoto [4]; cell cycle stage: mitosis)
1 | MEALILEPSLYTVKAILILDNDGDRLFAKYYDDTYPSVKEQKAFEKNIFNKTHRTDSEIALLEGLTVVYKSSIDLYFYVIGSSYENELMLMAVLNCLFDSLSQMLRKNVEKRALLENMEGLFLAVDEIVDGGVILESDPQQVVHRVALRGEDVPLTEQTVSQVLQSAKEQIKWSLLR [COPZ1] | 52.4 °C | 53.1 °C | 0.235 | 0.197 | -1.54 | -1.52
2 | MEALPLLAATTPDHGRHRRLLLLPLLLFLLPAGAVQGWETEERPRTREEECHFYAGGQVYPGEASRVSVADHSLHLSKAKISKPAPYWEGTAVIDGEFKELKLTDYRGKYLVFFFYPLDFTFVCPTEIIAFGDRLEEFRSINTEVVACSVDSQFTHLAWINTPRRQGGLGPIRIPLLSDLTHQISKDYGVYLEDSGHTLRGLFIIDDKGILRQITLNDLPVGRSVDETLRLVQAFQYTDKHGEVCPAGWKPGSETIIPDPAGKLKYFDKLN [PRDX4] | 58.4 °C | 62.8 °C | -0.00958 | -0.0673 | -1.92 | -4.08
3 | MEALSRAGQEMSLAALKQHDPYITSIADLTGQVALYTFCPKANQWEKTDIEGTLFVYRRSASPYHGFTIVNRLNMHNLVEPVNKDLEFQLHEPFLLYRNASLSIYSIWFYDKNDCHRIAKLMADVVEEETRRSQQAARDKQSPSQANGCSDHRPIDILEMLSRAKDEYERNQMGDSNISSPGLQPSTQLSNLGSTETLEEMPSGSQDKSAPSGHKHLTVEELFGTSLPKEQPAVVGLDSEEMERLPGDASQKEPNSFLPFPFEQLGGAPQSETLGVPSAAHHSVQPEITTPVLITPASITQSNEKHAPTYTIPLSPVLSPTLPAEAPTAQVPPSLPRNSTMMQAVKTTPRQRSPLLNQPVPELSHASLIANQSPFRAPLNVTNTAGTSLPSVDLLQKLRLTPQHDQIQTQPLGKGAMVASFSPAAGQLATPESFIEPPSKTAAARVAASASLSNMVLAPLQSMQQNQDPEVFVQPKVLSSAIPVAGAPLVTATTTAVSSVLLAPSVFQQTVTRSSDLERKASSPSPLTIGTPESQRKPSIILSKSQLQDTLIHLIKNDSSFLSTLHEVYLQVLTKNKDNHNL [DCP1A] | 50.5 °C | 50.9 °C | 0.265 | -0.0577 | -0.228 | 1.27
4 | MEANWTAFLFQAHEASHHQQQAAQNSLLPLLSSAVEPPDQKPLLPIPITQKPQGAPETLKDAIGIKKEKPKTSFVCTYCSKAFRDSYHLRRHESCHTGIKLVSRPKKTPTTVVPLISTIAGDSSRTSLVSTIAGILSTVTTSSSGTNPSSSASTTAMPVTQSVKKPSKPVKKNHACEMCGKAFRDVYHLNRHKLSHSDEKPFECPICNQRFKRKDRMTYHVRSHEGGITKPYTCSVCGKGFSRPDHLSCHVKHVHSTERPFKCQTCTAAFATKDRLRTHMVRHEGKVSCNICGKLLSAAYITSHLKTHGQSQSINCNTCKQGISKTCMSEETSNQKQQQQQQQQQQQQQQQQQQHVTSWPGKQVETLRLWEEAVKARKKEAANLCQTSTAATTPVTLTTPFSITSSVSSGTMSNPVTVAAAMSMRSPVNVSSAVNITSPMNIGHPVTITSPLSMTSPLTLTTPVNLPTPVTAPVNIAHPVTITSPMNLPTPMTLAAPLNIAMRPVESMPFLPQALPTSPPW [VEZF1] | 55.4 °C | – | 0.142 | 0.0342 | 0.665 | 0.5
5 | MEAQAQGLLETEPLQGTDEDAVASADFSSMLSEEEKEELKAELVQLEDEITTLRQVLSAKERHLVEIKQKLGMNLMNELKQNFSKSWHDMQTTTAYKKTHETLSHAGQKATAAFSNVGTAISKKFGDMSYSIRHSISMPAMRNSPTFKSFEERVETTVTSLKTKVGGTNPNGGSFEEVLSSTAHASAQSLAGGSRRTKEEELQC [TPD52L1] | 54.4 °C | 53.6 °C | 0.458 | 0.111 | -3.64 | -3.95
6 | MEASVILPILKKKLAFLSGGKDRRSGLILTIPLCLEQTNMDELSVTLDYLLSIPSEKCKARGFTVIVDGRKSQWNVVKTVVVMLQNVVPAEVSLVCVVKPDEFWDKKVTHFCFWKEKDRLGFEVILVSANKLTRYIEPCQLTEDFGGSLTYDHMDWLNKRLVFEKFTKESTSLLDELALINNGSDKGNQQEKERSVDLNFLPSVDPETVLQTGHELLSELQQRRFNGSDGGVSWSPMDDELLAQPQVMKLLDSLREQYTRYQEVCRQRSKRTQLEEIQQKVMQVVNWLEGPGSEQLRAQWGIGDSIRASQALQQKHEEIESQHSEWFAVYVELNQQIAALLNAGDEEDLVELKSLQQQLSDVCYRQASQLEFRQNLLQAALEFHGVAQDLSQQLDGLLGMLCVDVAPADGASIQQTLKLLEEKLKSVDVGLQGLREKGQGLLDQISNQASWAYGKDVTIENKENVDHIQGVMEDMQLRKQRCEDMVDVRRLKMLQMVQLFKCEEDAAQAVEWLSELLDALLKTHIRLGDDAQETKVLLEKHRKFVDVAQSTYDYGRQLLQATVVLCQSLRCTSRSSGDTLPRLNRVWKQFTIASEERVHRLEMAIAFHSNAEKILQDCPEEPEAINDEEQFDEIEAVGKSLLDRLTVPVVYPDGTEQYFGSPSDMASTAENIRDRMKLVNLKRQQLRHPEMVTTES [SESTD1] | – | 49.5 °C | 0.132 | -0.126 | -0.259 | 0.238
7 | MEATGTDEVDKLKTKFISAWNNMKYSWVLKTKTYFSRNSPVLLLGKCYHFKYEDEDKTLPAESGCTIEDHVIAGNVEEFRKDFISRIWLTYREEFPQIEGSALTTDCGWGCTLRTGQMLLAQGLILHFLGRAWTWPDALNIENSDSESWTSHTVKKFTASFEASLSGEREFKTPTISLKETIGKYSDDHEMRNEVYHRKIISWFGDSPLALFGLHQLIEYGKKSGKKAGDWYGPAVVAHILRKAVEEARHPDLQGITIYVAQDCTVYNSDVIDKQSASMTSDNADDKAVIILVPVRLGGERTNTDYLEFVKGILSLEYCVGIIGGKPKQSYYFAGFQDDSLIYMDPHYCQSFVDVSIKDFPLETFHCPSPKKMSFRKMDPSCTIGFYCRNVQDFKRASEEITKMLKFSSKEKYPLFTFVNGHSRDYDFTSTTTNEEDLFSEDEKKQLKRFSTEEFVLL [ATG4C] | 50.6 °C | 50.3 °C | -1.32 | 0.268 | -0.279 | 0.138
8 | MEATGVLPFVRGVDLSGNDFKGGYFPENVKAMTSLRWLKLNRTGLCYLPEELAALQKLEHLSVSHNNLTTLHGELSSLPSLRAIVARANSLKNSGVPDDIFKLDDLSVLDLSHNQLTECPRELENAKNMLVLNLSHNSIDTIPNQLFINLTDLLYLDLSENRLESLPPQMRRLVHLQTLVLNGNPLLHAQLRQLPAMTALQTLHLRSTQRTQSNLPTSLEGLSNLADVDLSCNDLTRVPECLYTLPSLRRLNLSSNQITELSLCIDQWVHVETLNLSRNQLTSLPSAICKLSKLKKLYLNSNKLDFDGLPSGIGKLTNLEEFMAANNNLELVPESLCRCPKLRKLVLNKNHLVTLPEAIHFLTEIEVLDVRENPNLVMPPKPADRAAEWYNIDFSLQNQLRLAGASPATVAAAAAAGSGPKDPMARKMRLRRRKDSAQDDQAKQVLKGMSDVAQEKNKKQEESADARAPSGKVRRWDQGLEKPRLDYSEFFTEDVGQLPGLTIWQIENFVPVLVEEAFHGKFYEADCYIVLKTFLDDSGSLNWEIYYWIGGEATLDKKACSAIHAVNLRNYLGAECRTVREEMGDESEEFLQVFDNDISYIEGGTASGFYTVEDTHYVTRMYRVYGKKNIKLEPVPLKGTSLDPRFVFLLDRGLDIYVWRGAQATLSSTTKARLFAEKINKNERKGKAEITLLVQGQELPEFWEALGGEPSEIKKHVPEDFWPPQPKLYKVGLGLGYLELPQINYKLSVEHKQRPKVELMPRMRLLQSLLDTRCVYILDCWSDVFIWLGRKSPRLVRAAALKLGQELCGMLHRPRHATVSRSLEGTEAQVFKAKFKNWDDVLTVDYTRNAEAVLQSPGLSGKVKRDAEKKDQMKADLTALFLPRQPPMSLAEAEQLMEEWNEDLDGMEGFVLEGKKFARLPEEEFGHFYTQDCYVFLCRYWVPVEYEEEEKKEDKEEKAEGKEGEEATAEAEEKQPEEDFQCIVYFWQGREASNMGWLTFTFSLQKKFESLFPGKLEVVRMTQQQENPKFLSHFKRKFIIHRGKRKAVQGAQQPSLYQIRTNGSALCTRCIQINTDSSLLNSEFCFILKVPFESEDNQGIVYAWVGRASDPDEAKLAEDILNTMFDTSYSKQVINEGEEPENFFWVGIGAQKPYDDDAEYMKHTRLFRCSNEKGYFAVTEKCSDFCQDDLADDDIMLLDNGQEVYMWVGTQTSQVEIKLSLKACQVYIQHMRSKEHERPRRLRLVRKGNEQHAFTRCFHAWSAFCKALA [FLII] | 49.5 °C | 49.5 °C | -0.172 | -0.0947 | -0.0623 | 0.353
9 | MEAVLTEELDEEEQLLRRHRKEKKELQAKIQGMKNAVPKNDKKRRKQLTEDVAKLEKEMEQKHREELEQLKLTTKENKIDSVAVNISNLVLENQPPRISKAQKRREKKAALEKEREERIAEAEIENLTGARHMESEKLAQILAARQLEIKQIPSDGHCMYKAIEDQLKEKDCALTVVALRSQTAEYMQSHVEDFLPFLTNPNTGDMYTPEEFQKYCEDIVNTAAWGGQLELRALSHILQTPIEIIQADSPPIIVGEEYSKKPLILVYMRHAYGLGEHYNSVTRLVNIVTENCS [OTUD6B] | 49.9 °C | 50 °C | 0.512 | -0.0729 | 0.405 | 0.425
10 | MEDAGGGEETPAPEAPHPPQLAPPEEQGLLFQEETIDLGGDEFGSEENETASEGSSPLADKLNEHMMESVLISDSPNSEGDAGDLGRVRDEAEPGGEGDPGPEPAGTPSPSGEADGDCAPEDAAPSSGGAPRQDAAREVPGSEAARPEQEPPVAEPVPVCTIFSQRAPPASGDGFEPQMVKSPSFGGASEASARTPPQVVQPSPSLSTFFGDTAASHSLASDFFDSFTTSAFISVSNPGAGSPAPASPPPLAVPGTEGRPEPVAMRGPQAAAPPASPEPFAHIQAVFAGSDDPFATALSMSEMDRRNDAWLPGEATRGVLRAVATQQRGAVFVDKENLTMPGLRFDNIQGDAVKDLMLRFLGEKAAAKRQVLNADSVEQSFVGLKQLISCRNWRAAVDLCGRLLTAHGQGYGKSGLLTSHTTDSLQLWFVRLALLVKLGLFQNAEMEFEPFGNLDQPDLYYEYYPHVYPGRRGSMVPFSMRILHAELQQYLGNPQESLDRLHKVKTVCSKILANLEQGLAEDGGMSSVTQEGRQASIRLWRSRLGRVMYSMANCLLLMKDYVLAVEAYHSVIKYYPEQEPQLLSGIGRISLQIGDIKTAEKYFQDVEKVTQKLDGLQGKIMVLMNSAFLHLGQNNFAEAHRFFTEILRMDPRNAVANNNAAVCLLYLGKLKDSLRQLEAMVQQDPRHYLHESVLFNLTTMYELESSRSMQKKQALLEAVAGKEGDSFNTQCLKLA [TRAPPC12] | 50.1 °C | 49.2 °C | 0.188 | -0.258 | 0.55 | 0.59
